# Measurements published in PMC3112443.
# B1: human tetherin (HuTHN; BST-2, CD317, HM1.24): N65/92A (protein)
# parent chain: MASTSYDYCRVPMEDGDKRCKLLLGIGILVLLIIVILGVPLIIFTIKANSEACRDGLRAVMECRNVTHLLQQELTEAQKGFQDVEAQAATCNHTVMALMASLDAEKAQGQKKVEELEGEITTLNHKLQDASAEVERLRRENQVLSVRIADKKYYPSSQDSSSAAAPQLLIVLLGLSALLQ
# Key:
# [1] = non-reducing Western blot; conditions: glycan lost; control: wild type
# [2] = supernatant titer on PFVL luciferase indicator cells; conditions: glycan lost; control: wild type
protein,measurement,setting,value
B1,oligomerisation,[1],no change
same,other: inhibition of virus release,[2],no change
